This data set in a line: label from the status in PepcDB records.
Turning to “MESVSCSAAAVRTGDMESQRDLSLVPERLQRREQERQLEVERRKQKRQNQEVEKENSHFFVATFARERAAVEELLERAESVERLEEAASRLQGLQKLINDSVFFLAAYDLRQGQEALARLQAALAERRRGLQPKKRFAFKTRGKDAASSTKVDAAPGIPPAVESIQDSPLPKKAEGDLGPSWVCGFSNLESQVLEKRASELHQRDVLLTELSNCTVRLYGNPNTLRLTKAHSCKLLCGPVSTSVFLEDCSDCVLAVACQQLRIHSTKDTRIFLQVTSRAIVEDCSGIQFAPYTWSYPEIDKDFESSGLDRSKNNWNDVDDFNWLARDMASPNWSILPEEERNIQWD”, the protein production result was “not failed”.
Regarding “MDSSNYFYGGNNICIINTKWGKHSGIGGYAEIIDTLVGNFTNISSWAKIGIRDHIHTNFLICDFVYKDNDHIMPPGISSFEDYWVKIGNDVWVGTNVTILRGVEVGDGAVIAAGSVVTKSIPPYAIVGGNPAKFIKWRFPFEVREKLLEIKLEHHHHHH”, the protein production entry is listed as “failed”.
The value for “MNIDEIERKIDEAIEKEDYETLLSLLNKRKELMEGLPKDKLSEILEKDRKRLEIIEKRKTALFQEINVIREARSSLQK” was “not failed”.
The value for “NSGKRLIQRSIERALDFRKEVQRLREESDGWFFDIWQPEAVDKAECWPVAPGEDWHGFKDADADHMYLDPVKVTILTPGMDEQGNMDEEGIPAALVAKFLDERGVVVEKTGPYNLLFLFSIGIDKTRAMGLLRGLTEFKRAYDLNLRVKNMLPDLYAEDPDFYRNMRIQDLAQGIHRLIRQHQ” was “failed”; that for “MKIIDKLYEKVSKNGFVCIGLDSSIDYIPENMKAGKSVSEALFSYNKEIIDQTYDVCAIYKLQIAYYESYGIEGMIAYRDTLSYLREKDLLSIGDVKRSDIAASAKMYAKAHFEGDFETDFITLNPYMGMDSIEPYEEYIEKGDKGVFVLLRTSNPGAKDFEVLPVDGEEFFYKVGDKMRELNEKYIGKSGFGPIGLVVGATHSEEVEKIRKRYDKMFFLIPGFGAQKADSMNVYKLLEGLNGGVVNSSRAILKNWQNYEDGSEKVGYYARKKAIETYEEIKANEVL” was “not failed”; that for “MPFRTIARLNPAKPKAGEEFRLQVVAQHPNEPGTRRDAEGKLIPAKYINLVEVYFEGEKVAEARPGPSTSANPLYAFKFKAEKAGTFTIKLKDTDGDTGEASVKLELV” was “not failed”.
With “AEPTLYGRYENIKVLEIGQTFKAKMDTGALTASLSAKDIELFQRDGDDWVRFRLATKGADDKVYEHKVSRISKIKGRAEGDDEDDEGINPAKRPVVDLELCLGNKKRTVEVNLVDRSHFNFPLLIGAKALREFGAAINPARRYTADEP” the entry was “failed”.
For the sequence “MRAMRWILPLLLAIGVAAPARAASEWAVKDGSVQVKAHADEQGRAVVRASIEIAAPPSVVFGVILDCGRAARMSPGVKRCRVVSRAADGSEVREHTVKWGFFLPALQSRSRLSLQPDREIRFTCIGGDIRACDGFWRLEPLDGGMRTRVTYDLWATAPYAAPAGLVSSLMRRTVPQSLAALRRECEGG”, the protein production result is given as “failed”.
With “MSRADDVANLFQRFGASSDGYLETDNSLDYQESSVSSTPSVALQRATSQPSIEQPCAEQSAQNNAPAPDSITPDKTRRIAADTLAKLLAEAVQAREAEAQARNNEALAQSMGKEQLSRTPAHVIAVVSAKGGVGKSTLSAALTSLVKVPGGQTLAIDLDPQDALQHHLNASPDVAGLGGASLSGENWRALLLNGSADADTQLLAYGSLQLDERRSLERFQESDAHWLVRQIARMQLSARDVVILDVPCGDLLMLEQALNAASQVLVVLTADAACYLTLDQMQGWLEPVLAGPQPPVCHYVINQFDASRTFSRDMRDVMAKRLGGRLLGIVHKDNALAEALAYGHNAVQVPSASPGTQDLRVLSHLLITKLLTQDVEETRLS” the entry was “failed”; with “MKSFSIPIRFMLISSFFMSFGYFAVYAFLAIYLLSFLHFSTFQVGTVLTVIIITSRVIPLFSGLIADKIGYIIMMIAGLFLRGIGFIALGICSDFYTVSISSALIGFGTAFYEPAARAIFGSQPAHLRKNLFTYLNLSFNCGAIIGPIAGGFLLLLDPIYAFSLTGSLMLLFALIFYLLKNHFQVTTESTSIALGIQTILQNKSFLLFSFIMIFFYIMFTQLTVALPLHMKNISNSNQLATLVITINAITGVIFMVLFRKLFHKYNTLSFIKYGILLMSISFLLIPLFQHPYWLFICVIFFTIGETLVLPNADIAIANYSNESYTATFFGFYQLSLAFGFIIGNYTGTWFKSKLNGMYTPWLIFGGIGLIGFISLHILNIKKERSKEDIYLLEKY”, “failed”; with “MVLEHCRDAIESHGVETDIISLRGMKIESCRACLSCAKKHRCRIDDGLNDIIDRIRDSEGFIVATPVYFGTARGDLMAALQRIGMVSRASDGFLSWKVGGPIAVARRGGHTATIQELLMFYFINDMIVPGSTYWNMVFGWAPGEVEDDSEGIETIRRFGENVAELIKRINGGSLEHHHHHH”, “failed”.
For “METSLISPMKENNTAQPQQREENTQQNLNAAVPIKQQSPGLLPEALEVGVKPDPASQILATQEIENPVAGFEGDSDKFHISTDEMAEHLQASDLWYCPDGSFVKKIIVHGHGLDKPKLGSKCRVLALGFPFGSGMPEGWTELTIGTGQWREKTWGELTEKCLESMRQGEEAKIHLPGSSTPLAKLRLDSFTNGRDSWELEAVEKEALAKEEHRRGTELFRAGNPQGAARCYGRALRLLLTLPPPGPPERTILHANLAACQLLLGHPQLAAQSCDRVLEREPGHLKALYRRGVAQAALGDLDKATADLKKVLAVDPKNRAAKEELGKVVIQGKIQDAGLARGLRKMFS”, the protein production result is on record as “failed”.
Consider “MTKIMIIGANGGIAKKLTQRLLAETDDELVLFLRRAERLAQYREQPRVTLIDGNVLDTDELATAMAPVDIVYSNVGGTDLAAQTKSILAAMARTQRQRLIFISALGAHHEVPGKFGAWNEQAIADFLPGFREAARLLSASELVYTEIRPAWLTDVAEIDYELTTGAEPFKGTEVSRASVADLVFKLMAHPENYQRVSLGVDEPGTAGDRPSWLLEHHHHHH”, for which the protein production entry is “failed”.
The value for “MVIFIMKKRYICILPYSLSYGGVFIDCKEVIANYWNFRSSTYKNGINGFDEEERAVWKQIFENSLASGKRLKVLDVGTGTGFLALLFAEMGHEVSGIDLSEGMLEKARHNADNMGLEISLFHGDAENLPFEDCSFDLVVNKYLLWTLQEPASAVREWKRVLKPGGMIFAIDGNWFDPRPDRYIKRMLYGLAERFAKKNQYNLIFKKSYGPIRNSLPLYEKISPKNISFLFSETGLMNTEISPLLEVQKFQRNRHSFSRRIFENNSIFLISGQKNLEHHHHHH” was “failed”; that for “MEINADFTKPVVIDTDQLEWRPSPMKGVERRMLDRIGGEVARATSIVRYAPGSRFSAHTHDGGEEFIVLDGVFQDEHGDYPAGTYVRNPPTTSHVPGSAEGCTIFVKLWQFDPADRTQFSKNMEAELGAPVEGISTSLLHEDERETVTHRKLEPGANLTSEAAGGIEVLVLDGDVTVNDEVLGRNAWLRLPEGEALSATAGARGAKIWMKTGHLRFVRTPEV” was “not failed”; that for “MERKNNQRSDEDEERKEQSEEERVERKEEAPRKRQKQDDVSTGKETLSKKRKIIDNDGDNVPTRSNKQSRVDDADNVDGPPVGDNDDHPTAQRKSKRGTIPSIHTQPPFTAEKKKHPILYPFAKVDASRVEKLAEGKKSRKCK” was “failed”.
The value for “MLKHFGSKVRNLRVTRNITREDFCGDETELSVRQLARIESGQSIPNLTKAHYIAKQLNVKLDILTGGESLELPKRYKELKYLILRIPTYADAERLKLRECQFDHIFEEFYDNLPEDECLAIDSLQAKFEVYQTGDINFGVEVLCECFDKVKYKEKYTLNDLIIIDLFLTCAVVSKFNNRAFTKEVFQTICKTLISQNHKLTAEDLFWFNHVLLNCVFVGLCLNSEECLAEMLEVSRQTMVSTHDFHKMPLYFMYQWKYFITIDNDIKSAENAYQQSIMFSKMIDDKHLIKKLELEWQEDITGH” was “failed”; that for “MTHVTLRSEFETLIDPYAPVAQVGTGFDFTEGPIWHPIDHYLLFSDMPGDVRRRWDARRGMAEVKRPSNKCNGMTYDAELNLIVCEHATSSLIRERPDGRREVLASHFGGQELNSPNDVCVHSSGAIYFSDPWYGRMPVYGVERPRQLGFQGVYRVMPGGEPKLVVDRNLFDQPNGLCFSPDERLLYVNDTVQALIRVFDVNADGTLSNARVFASSIKSELEPGLPDGMKCDQHGNVWVTAPGGVWVYSPRGELLGKVRVPELVANLAWGGPDFRTLYLTSTHSVYAIPTRVGPRHEPYMSGRRGGAGASAGPAAAAPILTDGEMRLDPQRCAMIIQDLQNDVIMDGGAFDGSGAPAHAKQQHVVENVRRLAEAARARGVAIIHVWFVVEPGAPGVTLNAPLFEGLVDSKAMVRGSWGAAPVSGLEPRPGDFVVEKMRMSAWEGTRLETILKATGRDMIINTGAWTNMSVEHTARTGADKGYFMIVPEDCCSTMNADWHSASINFAMQNVAIVTRADAVIRALGLEHHHHHH” was “failed”; that for “MPPRRRPHAGLTLPRILILNLLKALATISSLTMLSRITGLVREILIARAFGASDMTDAFNVAFRIPNLLRRIFAEGAFSQAFVPILNEYHGKRGHDETMSLVDAVATVMTWVLAAVSLLGVIGAPIVMTVVATGFRGDSETYNAAVFMTRVMFPYIGLISMVALASGILNTWRNFAVPAFTPVLLNLCLIVAALFVGPHMSQPIYAQAWGVLVGGVLQLVIQVPAMRKLGVMPRVSLNLRAAWANPGVRRVITQMLPALLAVSVAQISLIINTNIASRLGAGAVSYITYADRLMEFPTALLGVALGTILLPSLSRASAEDNREEYSGLLDWGLRLTFLLALPCAAGLMLFGTPITSVLFHYGRFDAHAVEMTQQALTTYGVGLLALILIKILTPGFYARQDIRTPVKIAILVLIITQASNYVFVPMLQHAGLPLSISFGATVNALLLFYGLRRRGYYHPAPGWGLFLLRLVAAMLILSGMLLWFARNFDWIALGATPGLRIALMGACLVLAATVYFGTLWLMGLRYSSFRRRAG” was “failed”.
The value for “TPSRVEAFDNSNIHGTDPVSAMVTFLDGKPSKNDYRKYKIKTVEGPDDYATMREVIRRRYWRVLKEGLPMPDLILIDGGKGQIDSAKDVLTNELGLDIPVAGLAKDDKHRTSQLLFGDPLEIVPLERNSQEFYLLQRMQDEVHRFAITFHRQLRSKTGFQSILDGIPG” was “failed”.
As for “MNQTRVLLIFSWLTVATLLWMDWSKNKNETLEISASHNLGVDSNLELEHAVPQIHAGAVPLQKDSQLIAAAPKVPVINVTTDVLQLKLDGFSILAADLLRFPQSKDRGAKPIKLLTDDPNYPYSATTGWVSQSNSPVPNLSTFLPEQPDVSYKLANDQNRLVVPFIWTAANGVSIRRTFTFERGRYAILIRDEIRNSGETPWNAYVFRKLSRVPIPNILNRAMTNPDSFSFNGAVWYSEKGGYERRAFKDYMNDGGLNREIGGGWIALLQHHFFTAWIPQKDQASLYLLAQNGSRDIAELRGPAFTVAPGQTTTTEARLWVGPKLVEQITKEHVKGLDRVVDYSRFQLMALIGQGLFWILSHLNSLLHNWGWAIVGLVVLLRIAMYPLSASQYKSAAKMRKFQPRLQQLKERYGEDRQKFQQAMMELYKKEKINPMGGCFPILIQMPIFFALYWVLVESVELRQAPWLGWIQDLTTRDPYFILPLLNIVIMWATQKLTPTPAGMDPIAGKMMQVMPLIFGVMMAFVPSGLALYWVINGGLNLLIQWWMIRQHADFSRKRSRENIK”, the protein production entry was “failed”.

(Values after a protein production outcome set (Wang et al. 2014).)
